According to article PMC10458775, “A Combined Plasmonic and Electrochemical Aptasensor Based on Gold Nanopit Arrays for the Detection of Human Serum Albumin”:

Molecular target: human serum albumin (HSA) (Homo sapiens, UniProt P02768 25-609)
Experiment: alternating current voltammetry (electrochemical aptasensor); gold nanopit array with 6-MCH; HSA up to 600 uM; LOD 0.08 nM (not a Kd); 10 mM Tris, 150 mM NaCl, 5 mM KCl, pH 7.4, room temperature; 30 min HSA incubation; aptamer immobilized in 10 mM Tris, 1.5 M NaCl, 1 mM MgCl2, pH 7.4
Details: label: 5' ferrocene

Sequence of human serum albumin (HSA) (P02768 25-609): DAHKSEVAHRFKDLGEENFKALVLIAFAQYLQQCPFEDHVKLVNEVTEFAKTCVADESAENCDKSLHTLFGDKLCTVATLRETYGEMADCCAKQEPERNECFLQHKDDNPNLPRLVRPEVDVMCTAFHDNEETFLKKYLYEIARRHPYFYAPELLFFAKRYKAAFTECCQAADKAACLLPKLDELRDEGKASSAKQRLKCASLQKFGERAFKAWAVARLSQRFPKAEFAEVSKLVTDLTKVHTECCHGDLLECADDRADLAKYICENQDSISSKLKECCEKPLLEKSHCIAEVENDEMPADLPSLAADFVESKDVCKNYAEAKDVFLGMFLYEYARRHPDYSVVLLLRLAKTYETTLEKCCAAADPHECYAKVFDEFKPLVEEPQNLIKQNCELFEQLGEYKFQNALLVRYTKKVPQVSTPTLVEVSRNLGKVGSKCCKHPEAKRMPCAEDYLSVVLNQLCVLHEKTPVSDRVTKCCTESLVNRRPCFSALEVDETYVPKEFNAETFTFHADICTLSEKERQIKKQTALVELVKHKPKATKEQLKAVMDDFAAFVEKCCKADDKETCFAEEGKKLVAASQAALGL

B1: HSA aptamer (ssDNA)
DNA: GTCTCAGCTACCTTACCGTATGTGGCCCAAAGCGTCTGGATGGCTATGAA
modifications: 3' (CH2)6-SH thiol (disulfide reduced with TCEP), immobilized on gold
binding result: binds
